Stoichiometry N and Kd data for two substances are collected here from article PMC8072984.

Test [1] deals with sapC-PUMA chimera (saposin C linked to the BH3 domain of PUMA). As to the kind of experiment: NMR titration; [1H-15N]-SOFAST-HMQC at 298 K, 600 MHz; 15N-labelled chimera at 100 µM mixed with unlabeled Bcl-xL-ΔTM (stock 900 µM, pH 6.8) at chimera:Bcl-xL molar ratios 1:0, 1:0.5, 1:1, 1:2; 10% D2O; slow exchange, the upper limit of KD estimated from the chemical shift difference assuming diffusion-controlled kon.

Test [2] addresses Bcl-xL (Homo sapiens) (UniProt Q07817). As to the kind of experiment: isothermal titration calorimetry. The following applies: cited from earlier work. A general note: Isothermal titration calorimetry measures the heat released or taken up as one component is titrated into another.

Chain of PUMA BH3 (Q9BXH1 130-156): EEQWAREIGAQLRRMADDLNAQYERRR
Chain of Bcl-xL (Homo sapiens) (Q07817 whole entry): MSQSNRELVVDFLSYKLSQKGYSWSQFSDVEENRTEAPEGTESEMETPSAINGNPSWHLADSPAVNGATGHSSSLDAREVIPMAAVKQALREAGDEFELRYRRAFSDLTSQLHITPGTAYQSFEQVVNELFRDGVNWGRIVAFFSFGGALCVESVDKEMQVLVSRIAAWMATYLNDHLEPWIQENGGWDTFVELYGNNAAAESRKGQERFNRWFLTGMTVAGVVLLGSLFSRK
Chain of sapC-PUMA chimera (saposin C linked to the BH3 domain of PUMA) (P07602 other isoform, or with tags, fused parts or gaps mutant): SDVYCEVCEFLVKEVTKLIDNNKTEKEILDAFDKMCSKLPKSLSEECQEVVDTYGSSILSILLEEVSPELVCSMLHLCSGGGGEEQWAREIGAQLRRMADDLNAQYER

The stoichiometry N is the number of molecules, sites or subunits per partner or assembly. On to “Human Bcl-xL-ΔTM (native amino acid sequence without the transmembrane domain) (domain or fragment)”, for which the stoichiometry N in test [1] is 1. The term Kd denotes the concentration at which binding is half-saturated. Consider PUMA BH3 (from UniProt Q9BXH1), for which the Kd in test [2] was 3 nM.
